Laboratory results from paper PMC3685208.

Legend:
Test in all cases: crystal structure
[1] = target: JCPyV Mad-1 VP1 pentamer S268F (amino acids 22 to 289) (JC polyomavirus (JCPyV), strain Mad-1)
[2] = target: JCPyV Mad-1 VP1 pentamer S268Y (amino acids 22 to 289) (JC polyomavirus (JCPyV), strain Mad-1)
[3] = target: JCPyV Mad-1 VP1 pentamer L54F (amino acids 22 to 289) (JC polyomavirus (JCPyV), strain Mad-1)
[4] = target: JCPyV Mad-1 VP1 pentamer (wild type, amino acids 22 to 289) (JC polyomavirus (JCPyV), strain Mad-1)

## JCPyV Mad-1 VP1 pentamer S268F (amino acids 22 to 289) (domain or fragment)
[1]
  stoichiometry N: 5

## JCPyV Mad-1 VP1 pentamer S268Y (amino acids 22 to 289) (domain or fragment)
[2]
  stoichiometry N: 5

## JCPyV Mad-1 VP1 pentamer L54F (amino acids 22 to 289) (domain or fragment)
[3]
  stoichiometry N: 5

## JCPyV Mad-1 VP1 pentamer (wild type, amino acids 22 to 289) (domain or fragment)
[4]
  stoichiometry N: 5
